How the values were obtained:
[1] = target: HLA-DR7 (human); experiment: competition ELISA, tracer YKL
[2] = target: HLA-DR15 (human); experiment: competition ELISA, tracer A3 152-166
[3] = target: HLA-DR1 (human); experiment: competition ELISA, tracer HA 306-318
[4] = target: HLA-DR11 (human); experiment: competition ELISA, tracer HA 306-318
[5] = target: T1, HLA-DP4 (DPB1*0402) (human), P20036; experiment: competition ELISA, tracer Oxy 271-287
T1 chain 1: not shown
T1 chain 2: not shown

[6] = target: HLA-DRB5 (human); experiment: competition ELISA, tracer not stated
[7] = target: T2, HLA-DP4 (DPB1*0401) (human), P20036; experiment: competition ELISA, tracer Oxy 271-287
T2 chain 1: not shown
T2 chain 2: not shown

[8] = target: HLA-DR4 (human); experiment: competition ELISA, tracer HA 306-318

B1: D31D (peptide)
peptide: DPHLPTLLLGTSGSGGDDDDPHGPVQLSYYD
modifications: not checked
- IC50 [1]: 27500 nM
- IC50 [2]: 251 nM
- IC50 [3]: 17300 nM
- IC50 [4]: 25 µM
- IC50 [5]: 28.3 µM

B2: A16L (peptide)
peptide: ALWNLHGQALFLGIVL
modifications: not checked
- IC50 [1]: 122 nM
- IC50 [2]: 48 nM
- IC50 [3]: 79 nM
- IC50 [4]: 11 µM
- IC50 [6]: 2680 nM
- IC50 [7]: 1180 nM
- IC50 [5]: 0.725 µM

B3: A15V (peptide)
peptide: ASSYAAAQRKLLTPV
modifications: not checked
- IC50 [1]: 1730 nM
- IC50 [2]: 26500 nM
- IC50 [3]: 1200 nM
- IC50 [4]: 0.004 µM
- IC50 [8]: 35.5 µM
- IC50 [6]: 463 nM

From patent US20090130134A1, “T CD4+ Epitopes of Type I and II Latency Antigens of the Epstein-Barr Virus, Which Can Be Recognized by the majority of individuals in the caucasian populations and applications thereof” (priority 2005, published 2009)
